Reference: article PMC5915732, “Human Cytomegalovirus Encodes a Novel FLT3 Receptor Ligand Necessary for Hematopoietic Cell Differentiation and Viral Reactivation” (mBio, 2018)

T1: human Fms-like tyrosine kinase 3 receptor (Flt-3R), GFP-tagged, on stable HEK-293 cells (HEK-293-hFlt-3R) (human, UniProt P36888 27-993)
T1 construct: human fms-tyrosine kinase 3 (FLT3), GFP-tagged, from plasmid OriGene RG211459, expressed on HEK-293 cells; In the functional rows from RS4;11 cells the receptor was the endogenous human Flt-3R of those cells, not this construct; also called human Flt-3 receptor; source: HEK-293, stably transfected (OriGene plasmid RG211459, G418 selection), on cells
T1 sequence (looked up): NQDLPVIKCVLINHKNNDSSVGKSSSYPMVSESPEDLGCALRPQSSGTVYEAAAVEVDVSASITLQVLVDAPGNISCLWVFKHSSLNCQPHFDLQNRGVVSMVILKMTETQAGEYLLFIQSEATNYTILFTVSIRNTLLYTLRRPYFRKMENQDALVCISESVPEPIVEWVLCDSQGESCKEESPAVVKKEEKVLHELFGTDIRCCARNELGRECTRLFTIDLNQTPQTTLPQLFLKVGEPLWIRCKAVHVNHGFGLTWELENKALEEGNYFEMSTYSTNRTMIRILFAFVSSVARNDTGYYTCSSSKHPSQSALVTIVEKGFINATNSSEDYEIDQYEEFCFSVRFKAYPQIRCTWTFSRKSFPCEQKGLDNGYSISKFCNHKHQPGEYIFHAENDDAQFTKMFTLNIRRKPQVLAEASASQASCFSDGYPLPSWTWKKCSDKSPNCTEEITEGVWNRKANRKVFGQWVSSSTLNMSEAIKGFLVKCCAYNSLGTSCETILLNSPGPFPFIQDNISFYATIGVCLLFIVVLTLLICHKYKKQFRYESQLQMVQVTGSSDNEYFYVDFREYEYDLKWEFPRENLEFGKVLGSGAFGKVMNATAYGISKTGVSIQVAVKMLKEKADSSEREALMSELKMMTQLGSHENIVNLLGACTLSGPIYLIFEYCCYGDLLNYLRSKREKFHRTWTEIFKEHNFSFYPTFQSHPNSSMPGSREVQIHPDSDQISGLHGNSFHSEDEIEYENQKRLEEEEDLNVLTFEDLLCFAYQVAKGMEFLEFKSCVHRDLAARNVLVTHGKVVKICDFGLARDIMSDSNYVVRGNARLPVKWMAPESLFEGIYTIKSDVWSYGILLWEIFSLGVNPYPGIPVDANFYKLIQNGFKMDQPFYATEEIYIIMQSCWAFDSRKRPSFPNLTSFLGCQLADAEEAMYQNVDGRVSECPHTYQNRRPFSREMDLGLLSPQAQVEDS


Columns and labels:
[1] = target: human Fms-like tyrosine kinase 3 receptor (Flt-3R), GFP-tagged, on stable HEK-293 cells (HEK-293-hFlt-3R) (human) (UniProt P36888); experiment: ELISA; competition on cells: HEK-293-hFlt-3R cells preincubated 1 h with 100-fold excess of nonbiotinylated pUL7 (5 ug/ml), Flt-3L (5 ug/ml), anti-Flt-3R antibody (1:100) or control antibody, washed with MEM, then incubated with 50 ng/ml biotinylated pUL7; HRP-streptavidin, absorbance at 450 nm
[2] = target: human Fms-like tyrosine kinase 3 receptor (Flt-3R), GFP-tagged, on stable HEK-293 cells (HEK-293-hFlt-3R) (human) (UniProt P36888)
[3] = target: T1, human Fms-like tyrosine kinase 3 …; experiment: ELISA; competition on cells: HEK-293-hFlt-3R cells preincubated 1 h with 100-fold excess of nonbiotinylated pUL7 (5 ug/ml), Flt-3L (5 ug/ml), anti-Flt-3R antibody (1:100) or control antibody, washed with MEM, then incubated with 50 ng/ml biotinylated pUL7; HRP-streptavidin, absorbance at 450 nm; conditions: one partner purified

| Molecule | percent reduction in binding of biotinylated pUL7 (100-fold excess of competitor) [1] [%] | phosphorylation of Akt (immunoblot) in serum-starved RS4;11 cells stimulated with 50 ng/ml pUL7, within 10 min, fold compared to the Fc control [2] [fold] | phosphorylation of ERK1/2 (immunoblot) in serum-starved RS4;11 cells stimulated with 50 ng/ml pUL7, within 10 min, fold compared to the Fc control [2] [fold] | phosphorylation of Flt-3R (immunoblot) in serum-starved RS4;11 cells stimulated with 50 ng/ml pUL7, within 10 min, fold compared to the Fc control [2] [fold] | percent reduction in binding of biotinylated pUL7 (100-fold excess of competitor) [3] [%] |
| --- | --- | --- | --- | --- | --- |
| purified UL7 (pUL7), recombinant UL7 protein from HCMV TB40E, nonbiotinylated (Fc fusion) | 62 | 8 | 9 | 14 |  |
| recombinant human Flt-3 ligand (Flt-3L) (ligand, UniProt P49771 27-184, looked up, recombinant human Flt-3 ligand, soluble; No catalogue number is printed; also called soluble Flt-3 ligand; 100XFlt-3L; source: bought: R&S Systems (so in the source)) TQDCSFQHSPISSDFAVKIRELSDYLLQDYPVTVASNLQDEELCGGLWRLVLAQRWMERLKTVAGSKMQGLLERVNTEIHFVTKCAFQPPPSCLRFVQTNISRLLQETSEQLVALKPWITRQNFSRCLELQCQPDSSTLPPPWSPRPLEATAPTAPQP |  |  |  |  | 63 |
